Measured values: the supplement of paper PMC10126150
± gives the standard deviation of the averaged measurements.

These sequences were tested on ATP (assay: switch fluorescence ratio, 500 uM ATP over buffer (Cy3 cluster intensity, sum of 5 cycles each) (fold (ratio)); higher = stronger signal-on switching upon ATP binding; sequences stand for … in TCGTCGGCAGCGTCAGATGTGTATAAGAGACAGTTTTTTTTTTTTTTTTTTTTTTTTT…TC). Settings: aptamer strand: ATP DNA aptamer (quencher-CACCTGGGGGAGTATTGCGGAGGAAGG + anchor), 100 nM annealed; ATP concentration: 500 uM.
How it was run: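 The fluorescence ratio divides summed target-cycle Cy3 intensity by summed buffer-cycle Cy3 intensity for each cluster and is averaged per switch-domain sequence. Cy3-labelled switching-strand clusters on a modified Illumina MiSeq flow-cell were annealed to 100 nM quencher-labelled ATP aptamer, then imaged in selection buffer and again after 15 min with 500 uM ATP at 22 °C. Five such cycles were run, with NaOH stripping and re-annealing between them, and clusters outside 100-1000 RFU were excluded.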
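Also: ATP exposure 15 min at 22 °C before imaging.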

Point of comparison: ATTGAGTTAG, switch fluorescence ratio 0.99 ± 0.011. Against it:
- TTGGGCCACG — within error, 0.983 ± 0.011
- TTTAGAGGGA — higher, 1.02 ± 0.019
- ATATTCATCT — within error, 0.9861 ± 0.0056
- TATAAGATGT — within error, 0.983 ± 0.025
- TGGGTGCGGT — within error, 0.991 ± 0.012
- AGTTGAATTT — within error, 0.9885 ± 0.0016
- CGTGAATCTG — lower, 0.9669 ± 0.006
- GAGAAGGGAG — the same, 0.9895 ± 0.0055
- GAGGTTACGC — within error, 0.988 ± 0.053
- AGGCTTGAGG — the same, 0.9904 ± 0.0044
- ACAGGTTAGA — higher, 1.05 ± 0.014
- TAGTTCGGTG — within error, 0.988 ± 0.042
- TGTTTGTGAA — within error, 0.9815 ± 0.0032
- CCTACGGTGG — within error, 1.04 ± 0.04
- GAAGGCATGG — higher, 1.03 ± 0.015
- TGGAATAATT — within error, 1.003 ± 0.0081
- GGGACTTTGG — within error, 0.972 ± 0.018
- ATGTCAAGGC — within error, 1.05 ± 0.052
- GCGTTCCTTA — within error, 0.971 ± 0.024
- TGCCACTCTG — higher, 1.025 ± 0.008
- TCTTGAGGGG — within error, 0.982 ± 0.034
- CCTGGGGGTT — within error, 1.6 ± 0.79
- TGGACGCGCT — within error, 1.01 ± 0.025
- CTGAACTTTA — within error, 1.04 ± 0.043
- CGGTAATATC — higher, 1.915 ± 0.016
- CAGTTCCCGG — within error, 1.02 ± 0.063
- CCAGGTATAA — higher, 1.06 ± 0.041
- TTAGTTGTGG — within error, 0.982 ± 0.02
- TATGAATCAG — within error, 0.998 ± 0.019
- CCGGCATCGG — within error, 1.02 ± 0.059
- CAGGCAAGCT — higher, 1.061 ± 0.0071
- AGACTAGGCT — higher, 1.02 ± 0.018
- AGGTAATGAA — within error, 0.967 ± 0.023
- GGCCGGATGG — within error, 0.991 ± 0.011
- CTCAATCGGG — higher, 1.04 ± 0.021
- TACTAACATT — higher, 1.14 ± 0.019
- TAGTTATTTT — within error, 1.01 ± 0.021
- TAAGTGGGCC — within error, 1 ± 0.036
- CAATGGGACG — within error, 1.03 ± 0.098
- ATTCGCCACT — higher, 1.011 ± 0.0012
- AAATATTTCC — higher, 1.09 ± 0.06
- TATTATGGGG — within error, 1.02 ± 0.034
- TCGGGGAGGA — within error, 0.956 ± 0.026
- TGAGTGATGT — within error, 1.01 ± 0.023
- AGGTCGGAAT — higher, 1.04 ± 0.028
- ATGGAGGTAG — within error, 0.995 ± 0.027
- ATGGAAGGAT — within error, 1.005 ± 0.0065
- CCCCCACTGG — within error, 1.1 ± 0.15
- CAAAGCACCG — higher, 1.031 ± 0.0063
- TACTTAGA — higher, 1.04 ± 0.015
- TCAATTGTAA — within error, 1.05 ± 0.051
- TGGGGTCTGG — within error, 0.976 ± 0.026
- CCCAAACCTG — higher, 1.13 ± 0.068
- ATTAGGAGAT — within error, 0.9964 ± 0.0063
- GTTTTTTGGT — within error, 0.982 ± 0.03
- AGGTAATACG — higher, 1.098 ± 0.0067
- TGAGGAGGGA — within error, 0.987 ± 0.013
- ACTAAATATG — higher, 1.05 ± 0.046
- GGAGTGCAG — within error, 0.964 ± 0.025
- AGGCCGGAGC — higher, 1.06 ± 0.036
- TTATCGGTAT — within error, 1 ± 0.042
- GGGGATGATG — lower, 0.9683 ± 0.0046
- TTGGATGAAA — within error, 1.03 ± 0.076
- AACCAGTGGC — within error, 1.06 ± 0.079
- ATGTAGTTCG — within error, 0.981 ± 0.03
- TTTAGAACTC — within error, 1.19 ± 0.3
- AAGTGGGGA — within error, 0.986 ± 0.018
- TGGAGAGGGT — within error, 0.976 ± 0.0099
- TGGATATAGG — within error, 1.03 ± 0.038
- CAGGTTCACC — higher, 1.03 ± 0.012
- GAGGTTAGGT — within error, 0.981 ± 0.01
- AGTGTGTGTG — higher, 1.013 ± 0.0024
- TTTTAATGCG — higher, 1.04 ± 0.012
- AGGTGTAGGG — within error, 1.01 ± 0.025
- GTTTGATAGA — within error, 0.984 ± 0.027
- CACGGCGACA — higher, 1.15 ± 0.027
- AATTTTATAC — higher, 1.02 ± 0.016
- GGGGATTAGA — within error, 0.9846 ± 0.0072
- CACAATAGAT — within error, 1.02 ± 0.022
- GCATATCGGG — higher, 1.02 ± 0.017
- CGGCATGAGG — within error, 0.972 ± 0.018
- GAGTGTGATG — within error, 0.97 ± 0.021
- GTCGAAGCCC — higher, 1.03 ± 0.022
- ATATGGGGTG — higher, 1.05 ± 0.046
- GGATGGTGTT — within error, 0.958 ± 0.026
- AGTGTAAGTA — within error, 0.996 ± 0.03
- CGCTGTATCG — within error, 0.996 ± 0.043
- TATGTCAGCT — within error, 1.01 ± 0.032
- GCCAATTATT — within error, 0.991 ± 0.031
- GGACGCTATC — higher, 3.89 ± 0.42
- TTTATCGGG — within error, 1.01 ± 0.044
- ATGGGTGATC — within error, 1.01 ± 0.011
- CACTGGAGGG — within error, 0.9937 ± 0.0042
- TGCGGGCAAT — higher, 1.1 ± 0.039
- AAGTCTCTCC — higher, 1.06 ± 0.018
- GCTAGGAGTA — within error, 0.987 ± 0.0091
- TCTGTTCATG — within error, 1.001 ± 0.0081
- CAGCGAACGG — within error, 1.02 ± 0.026
- CAGGGCTTGA — within error, 1.03 ± 0.093
- TCGAAAAGGA — within error, 1.02 ± 0.026
- AATTGTGTAC — higher, 1.052 ± 0.0018
- TCAAAAGTTG — within error, 1.04 ± 0.044
- AATTAAGGCC — within error, 0.992 ± 0.026
- GTAGAAATGT — within error, 0.981 ± 0.027
- AGGTCCTGTG — within error, 0.998 ± 0.016
- GGTGTTGGAC — within error, 0.997 ± 0.019
- CGATAGTTAG — within error, 0.986 ± 0.044
- GGAGTCAGCG — within error, 0.977 ± 0.025
- TTTATAATAT — higher, 1.03 ± 0.015
- TCACAGGGGG — higher, 1.14 ± 0.12
- TAATTTTGGT — within error, 0.9847 ± 0.0068
- GCGAGGTTGA — higher, 1.045 ± 0.0015
- GTTTATAATG — within error, 0.986 ± 0.02
- CGATTAGGGA — within error, 1 ± 0.028
- GGAATCCATG — lower, 0.977 ± 0.0013
- AGGGTTTGTT — within error, 1.02 ± 0.04
- GTGGGGAATG — within error, 0.986 ± 0.024
- TTCATGGGG — within error, 0.9879 ± 0.0094
- GAGTAGTTGT — within error, 0.9969 ± 0.0083
- GGGGCTGAGG — lower, 0.93589 ± 0.00088
- AGAAGGGTGT — higher, 1.02 ± 0.017
- TACCCCGGTA — higher, 1.04 ± 0.035
- TTCGAAAAAG — within error, 0.9961 ± 0.008
- AAAGATGGCT — within error, 0.98 ± 0.025
- TACCGGTGTC — higher, 1.06 ± 0.047
- TTAGATTGCG — within error, 0.973 ± 0.026
- GTTTTGGGGT — within error, 0.986 ± 0.013
- GAAGGCCTTG — within error, 1.01 ± 0.025
- TGTTGCGGGT — within error, 1.01 ± 0.042
- TAACTTACAT — higher, 1.19 ± 0.018
- GTTTGAGGGG — within error, 0.992 ± 0.012
- TTAGTTATAC — higher, 1.78 ± 0.59
- ATGTCTTGAT — lower, 0.963 ± 0.014
- GAAGTAGAAA — within error, 0.9958 ± 0.0016
- GAATGGCACA — within error, 0.998 ± 0.016
- ACTCCTGGTT — within error, 1.01 ± 0.014
- ACCATAGAAT — within error, 1.009 ± 0.0094
- TTAGCGTAGG — higher, 1.02 ± 0.0011
- GAATATATTT — within error, 0.993 ± 0.019
- TCATTCGGTT — higher, 1.02 ± 0.016
- GCAGGAAGGG — within error, 0.977 ± 0.019
- AGTGGAAGCA — within error, 0.972 ± 0.031
- CTGGACTTAC — higher, 1.34 ± 0.052
- TGTGGGGGCT — within error, 1 ± 0.026
- TGCAATGATG — higher, 1.04 ± 0.039
- AGAGGGCGGG — within error, 0.98 ± 0.031
- TGGCGATAAT — higher, 1.05 ± 0.031
- CCGGCTAGTG — within error, 1.03 ± 0.034
- ATAGGGGGTT — within error, 0.98 ± 0.022
- TATATCTGAC — higher, 1.16 ± 0.074
- CGGCTTGGTG — within error, 0.996 ± 0.048
- ATGAGTAAGG — within error, 0.991 ± 0.013
- GAGTATTAGG — higher, 1.02 ± 0.0094
- GGGGTTTTAT — within error, 1.01 ± 0.018
- TTTTGGTAAT — within error, 1.01 ± 0.014
- CATTTGACGG — within error, 0.995 ± 0.024
- TTATTGTTGA — higher, 1.02 ± 0.011
- TCTGGGAGGT — within error, 0.975 ± 0.02
- ATTGTGCCGA — within error, 0.972 ± 0.011
- TTTTGAGCGG — higher, 1.04 ± 0.015
- TAATAGTTCC — higher, 1.106 ± 0.0025
- TTTTCGGACA — higher, 1.033 ± 0.0027
- GATGTCGTGC — within error, 1.03 ± 0.031
- ATGGATCCGG — within error, 1.03 ± 0.083
- CGATTGGGTC — within error, 0.999 ± 0.013
- GCTCGGGGTG — within error, 0.986 ± 0.032
- AAAGACGGTT — within error, 0.997 ± 0.013
- TAGCGATTGT — within error, 1.02 ± 0.062
- TTCGGATGGG — within error, 1 ± 0.034
- AAGAGGTATA — within error, 1.01 ± 0.032
- AAGTATAGC — within error, 1.02 ± 0.044
- GCAATCATTC — higher, 1.18 ± 0.087
- CTCGATGTGG — within error, 0.985 ± 0.044
- ATTGATTCGG — within error, 0.999 ± 0.014
- CTGGTATTTG — higher, 1.05 ± 0.041
- GGGGGACTGT — within error, 0.938 ± 0.057
- TTTGAATTTC — within error, 0.988 ± 0.021
- AGATTCGGGA — within error, 0.967 ± 0.038
- AAGCCCCTTG — within error, 0.992 ± 0.034
- TTTTGTGTTA — within error, 0.997 ± 0.033
- ATTACTGTGC — lower, 0.94 ± 0.02
- TATTAATCGG — within error, 0.97 ± 0.056
- CCAGCACTTT — higher, 1.008 ± 0.002
- AACCATCGGG — within error, 0.976 ± 0.013
- CACACTGGCA — within error, 0.996 ± 0.05
- TTACTCAGCC — higher, 1.12 ± 0.055
- TTGTTTGGCA — within error, 0.991 ± 0.025
- AGTTGTCCAT — within error, 0.9767 ± 0.0079
- TGGACTAGAA — within error, 0.983 ± 0.042
- GACTTATCCT — higher, 1.054 ± 0.004
- AGTAGCTCGG — within error, 1.009 ± 0.0092
- TGTGATCGAC — within error, 1.01 ± 0.018
- TAAGATCTTA — within error, 0.997 ± 0.015
- AAGCAGCCCT — higher, 1.02 ± 0.015
- GTGGCATAGC — within error, 0.981 ± 0.023
- TGGGTTAGTG — lower, 0.962 ± 0.017
- GTTGTGATTT — within error, 0.953 ± 0.032
- TTTACCATTT — higher, 1.024 ± 0.0018
- GGGGGTCGGT — within error, 1.01 ± 0.048
